{
  "source": "patent US7582478B2",
  "about": "“Cleaved serum response factor in cardiac diagnosis and therapy” (Baylor College of Medicine, priority 2003, dated 2009)",
  "molecules": {"B1": {"name": "SRF-N: N-terminal SRF (residues 1-254), 32 kDa caspase 3 cleavage fragment (protein)", "chain": "MLPTQAGAAAALGRGSALGGSLNRTPTGRPGGGGGTRGANGGRVPGNGAGLGPGRLEREAAAAAATTPAPTAGALYSGSEGDSESGEEEELGAERRGLKRSLSEMEIGMVVGGPEASAAATGGYGPVSGAVSGAKPGKKTRGRVKIKMEFIDNKLRRYTTFSKRKTGIMKKAYELSTLTGTQVLLLVASETGHVYTFATRKLQPMITSETGKALIQTCLNSPDSPPRSDPTTDQRMSATGFEETDLTYQVSESD"}, "B2": {"name": "SRF-C: C-terminal SRF (residues 255-508), 32 kDa fragment (protein)", "chain": "SSGETKDTLKPAFTVTNLPGTTSTIQTAPSTSTTMQVSSGPSFPITNYLAPVSASVSPSAVSSANGTVLKSTGSGPVSSGGLMQLPTSFTLMPGGAVAQQVPVQAIQVHQAPQQASPSRDSSTDLTQTSSSGTVTLPATIMTSSVPTTVGGHMMYPSPHAVMYAPTSGLGDGSLTVLNAFSQAPSTMQVSHSQVQEPGGVPQVFLTASSGTVQIPVSAVQLHQMAVIGQQAGSSSNLTELQVVNLDTAHSTKSE"}},
  "key": {"[1]": {"biological_target": "T1, active recombinant human caspase 3 (Homo sapiens, UniProt P42574)", "T1 construct": "incubated with active recombinant human caspase 3; purchased BD PharMingen", "T1 sequence (P42574 29-175 limits assumed)": "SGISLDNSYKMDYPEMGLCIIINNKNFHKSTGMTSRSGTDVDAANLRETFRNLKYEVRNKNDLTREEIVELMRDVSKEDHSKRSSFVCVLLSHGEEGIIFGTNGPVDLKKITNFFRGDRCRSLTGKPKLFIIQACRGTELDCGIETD", "T1 sequence (P42574 176-277 limits assumed)": "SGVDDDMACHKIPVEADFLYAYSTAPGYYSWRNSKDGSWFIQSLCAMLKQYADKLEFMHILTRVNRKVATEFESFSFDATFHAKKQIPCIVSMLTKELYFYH", "test": "In vitro cleavage of recombinant SRF by active caspase 3, Western blot", "type": "biochemical", "details": "20 μM Z-VAD-fmk, recombinant full length SRF", "protocol": "Recombinant purified full length SRF was incubated with active recombinant human caspase 3 (BD PharMingen) in the presence or absence of 20 μM of Z-VAD-fmk (BD PharMingen), a caspase 3 inhibitor, in a reaction buffer (50 mM HEPES (pH 7.4), 100 mM NaCl, 1 mM EDTA, 0.1% CHAPS, 10 mM DTT and 10% glycerol). Reactions were analyzed by Western blot as described above.\nTo examine caspase 3 cleavage of SRF, we incubated activated caspase 3 with recombinant SRF in vitro. […] Caspase 3 cleaved SRF in a time-dependent manner, and this cleavage was inhibited by the caspase inhibitor, Z-VAD. […] In this case, the 55 kDa fragment tended to fall as a function of caspase 3 doses while there was a coincident increase into a 32 kDa fragment."}, "[2]": {"test_system": "cardiac α-actin promoter", "test": "Cardiac α-actin promoter luciferase reporter (αCA-luc) co-transfection", "type": "cell-based, rat", "details": "for effect on cardiac α-actin promoter activity (in words): neonatal rat cardiomyocytes", "text": "(§1) The construction and use of reporter plasmids containing the skeletal (SK-luc) and cardiac α-actin (aCA-luc) promoters linked to luciferase reporters were as previously described (MacLellan et al., 1994; Wei et al., 1998). The vector pCGN, a cytomegalovirus promoter-driven expression vector, was used to express full length SRF (residues 1-508) (pCGN-SRF), N-terminal SRF (residues 1-254) (pCGN-SRF-N), C-terminal SRF (residues 255-508) (pCGN-SRF-C) and SRFpm1 (pCGN-SRFpm1) containing triple point mutants within the MADS box (Prywes and Zhu, 1992).\n(§2) C2C12 myoblasts and neonatal rat cardiomyocytes were cultured as previously described (MacLellan et al., 1994; Wei et al., 1998). Cells plated in 30-mm plates were transfected with […] of total plasmid DNA containing the reporter plasmid (SK-luc or aCA-luc) and the indicated expression plasmids. Transfections were performed using LipofectAMINE (Invitrogen) according to the manufacturer's instructions. Cells were harvested 40 h post-transfection and luciferase activity was measured as previously described (MacLellan et al., 1994).\n(§3) To evaluate potential functional significance of the cleaved fragments, we overexpressed the SRF-N and SRF-C fragments via CMV promoter-driven expression plasmids co-transfected with cardiac α-actin and skeletal α-actin promoter reporter plasmids in cultured rat neonatal cardiomyocytes and C2C12 myoblasts. […] This inhibitory effect was very similar to that observed by a SRF negative mutant SRFpml (Wei et al., 1998; Prywes and Zhu, 1992; Johansen and Prywes, 1993)."}, "[3]": {"test_system": "skeletal α-actin promoter", "test": "Skeletal α-actin promoter luciferase reporter (SK-luc) co-transfection in C2C12 myoblasts", "type": "cell-based", "text": "as §1, §2, §3"}, "[4]": {"test_system": "skeletal α-actin SRE1 DNA probe", "test": "Electrophoretic gel mobility shift assay (EMSA)", "type": "binding", "details": "recombinant protein", "protocol": "DNA binding activity of SRF-N was assayed by EMSA with recombinant SRF-N and full length SRF and with the oligonucleotide probe corresponding to the proximal SRE1 of the skeletal a-actin promoter as previously described (MacLellan et al., 1994; Wei et al., 1998). Recombinant SRF and SRF-N were generated using pET-15b (Novagen) vector, which contains 6′histidine tag. These recombinant SRFs were expressed in BL21 (Stratagene) competent cells followed by Ni-NTA (nickel-nitrilotriacetic acid) resin purification."}, "[5]": {"test_system": "neonatal cardiomyocytes", "test": "Immunofluorescence analysis of cellular localization in transfected cardiomyocytes", "type": "cell-based, rat", "details": "transfected cardiac myocytes, anti-HA antibody", "text": "Visualization of transfected SRF and SRF-N cellular localization was implemented in neonatal cardiomyocytes attached to coverslips as described previously (Wei et al., 2001). Anti-HA antibody was used at 1:200."}},
  "note": "“Also recorded” adds a separate entry of the source. Where a SMILES comes first, the peptide text is derived from it. The star is where a group is joined. Cbz = O=C(OCc1ccccc1)*; CH2F = FC*",
  "data": [
    {"molecule": "COC(=O)C[C@H](NC(=O)[C@H](C)NC(=O)[C@@H](NC(=O)OCc1ccccc1)C(C)C)C(=O)CF", "note": "[Z-VAD, Z-VAD-fmk] (Cbz-Val-Ala-Asp(OMe)-CH2F)", "values": [
      {"measurement": "cleavage of SRF by caspase 3", "setting": "[1]", "result": "blocked; also recorded: inhibited"}
    ]},
    {"molecule": "B1", "values": [
      {"measurement": "decrease of basal transcriptional activity of the cardiac α-actin promoter", "setting": "[2]; cultured rat neonatal cardiomyocytes, CMV promoter-driven expression plasmid, 40 h post-transfection", "result": 60, "unit": "%"},
      {"measurement": "effect on cardiac α-actin promoter activity (in words)", "setting": "[2]", "result": "repressed"},
      {"measurement": "inhibition of the transcriptional activity of α-actin gene promoters", "setting": "[2]; summary for myogenic cells (cardiomyocytes and C2C12 myoblasts together)", "result": "50-60%"},
      {"measurement": "effect on skeletal α-actin promoter activity (in words)", "setting": "[3]", "result": "repressed"},
      {"measurement": "decrease of basal transcriptional activity of the skeletal α-actin promoter", "setting": "[3]; CMV promoter-driven expression plasmid, 40 h post-transfection", "result": 50, "unit": "%"},
      {"measurement": "binding to skeletal α-actin SRE1 DNA probe", "setting": "[4]", "result": "retains DNA binding activity; also recorded: bound"},
      {"measurement": "nuclear localization", "setting": "[5]", "result": "localize to myogenic nuclei"}
    ]},
    {"molecule": "B2", "values": [
      {"measurement": "effect on cardiac α-actin promoter activity (in words)", "setting": "[2]", "result": "did not inhibit"},
      {"measurement": "effect on skeletal α-actin promoter activity (in words)", "setting": "[3]", "result": "did not inhibit"}
    ]}
  ]
}
